Patent US20250346589A1, “RADIOISOTOPE LABELED SSTR2-AGONISTS WITH LINKERS” (Erasmus University Medical Center Rotterdam, priority 2022, published 2025)

Columns and labels:
in vitro = in vitro ADME; settings: for remaining at 1 h / remaining at 4 h / remaining at 24 h: mouse, serum, Stability in mouse serum (%)
Method: The ^203Pb-labelled compounds (˜2 MBq) or the ^212Pb-labelled compounds (˜70 kBq) were incubated in 300 μL of phosphate buffered saline (PBS; 0.1 M, pH 7.4) or mouse serum at 37° C. Stability of the radiolabed peptides was monitored at 1, 4 and 24 h post incubation. The samples in PBS were directly analyzed by radio-HPLC without any pretreatment. However, samples in mouse serum were mixed with an equal volume of acetonitrile to precipitate the proteins. The solution was centrifuged twice for 5 min at 13,000 rpm, and the supernatant was analyzed by radio-HPLC using Method 1 for lead-203 and Method 2 for lead-212.

[1] = test system: H69-tumor xenograft and organs; parameters: species or system mice; settings: mouse, in vivo, iv
Method: Six-week-old male Balb/c nu/nu-specific and opportunistic pathogen-tree (SOPF) mice (Janvier Labs, Le Genest-Saint-Isle, France) were housed in individually ventilated cages, with 4 mice per cage. Upon arrival, mice were acclimated for 1 week, with access to food and water ad libitum. Mice were subcutaneously inoculated on the right shoulder with NCI-H69 cells (5×10^6 cells suspended in 100 μL of ⅓ Matrigel (Corning Inc., Corning, NY, USA) and ⅔ Hank's balanced salt solution (Gibco). NCI-H69 xenografts were allowed to grow for 3 weeks. Tumor sizes were 391±173 mm^3 at the start of the studies. All animal experiments were approved by the Animal Welfare Committee of the Erasmus MC and were conducted in agreement with institutional guidelines (license number: AVD101002017867).
Biodistribution studies were performed to determine tumor and organ uptake of [^212Pb]Pb-DOTAMTATE, [^212Pb]Pb-DOTAM-Amcha-TATE or [^212Pb]Pb-DOTAM-Pip-TATE. Animals (n=4 for each time point and each compound) were injected intravenously with an average of 100 kBq/0.5 nmol at t=0. At 3 selected time points (1, 4 and 24 h) p.i. blood was collected via cardiac puncture under isoflurane/O2 anesthesia, after which the mice were sacrificed. The tumor and organs of interest (prostate, pancreas, spleen, liver, GI tract (stomach, small intestine, large intestine), kidneys, lungs, heart, muscle, bone and tail) were excised, washed in PBS and blotted dry. To confirm receptor specificity of the 3 radiotracers uptake, NCI-H69-xenografted mice were co-injected with [212Pb] Pb-DOTAMTATE, [^212Pb]Pb-DOTAM-Amcha-TATE or [^212Pb]Pb-DOTAM-Pip-TATE plus an excess (25 nmol) of the respective unlabelled peptide (n=3), after which tumor and organ uptake was determined at 24 h p.i. The blood, tumor, and relevant organs were weighed and measured in a γ-counter. To determine the total injected radioactivity per animal, calibration curve with lead-212 was determined. The percentage of injected dose per gram (% ID/g) was determined for each tissue sample and corrected for both the injected volume and % ID present at the injection site (the tail). […] Pb-DOTAMTATE. In Table 3, the absorbed dose per administered activity (Gy/MBq; with RBE=5) in H69-tumor xenograft and organs for [^212Pb]Pb-DOTAM-TATE, [^212Pb]Pb-DOTAM-Amcha-TATE and [^212Pb]Pb-DOTAM-Pip-TATE is given.

SMILES	Stability in mouse serum (%) (in vitro; 1 h)	Stability in mouse serum (%) (in vitro; 4 h)	Stability in mouse serum (%) (in vitro; 24 h)	remaining at 1 h (in vitro)	remaining at 4 h (in vitro)	remaining at 24 h (in vitro)	further results
C[C@@H](O)[C@H](NC(=O)[C@@H]1CSSC[C@H](NC(=O)[C@@H](Cc2ccccc2)NC(=O)[C@H]2CC[C@H](CNC(=O)CN3CCN(CC(N)=O)CCN(CC(N)=O)CCN(CC(N)=O)CC3)CC2)C(=O)N[C@@H](Cc2ccc(O)cc2)C(=O)N[C@H](Cc2c[nH]c3ccccc23)C(=O)N[C@@H](CCCCN)C(=O)N[C@@H]([C@@H](C)O)C(=O)N1)C(=O)O [[^203Pb]Pb-DOTAM-Amcha-TATE] [metal not drawn]	100%	100%	100%	–	–	–	–
C[C@@H](O)[C@H](NC(=O)[C@@H]1CSSC[C@H](NC(=O)[C@@H](Cc2ccccc2)NC(=O)CN2CCC(NC(=O)CN3CCN(CC(N)=O)CCN(CC(N)=O)CCN(CC(N)=O)CC3)CC2)C(=O)N[C@@H](Cc2ccc(O)cc2)C(=O)N[C@H](Cc2c[nH]c3ccccc23)C(=O)N[C@@H](CCCCN)C(=O)N[C@@H]([C@@H](C)O)C(=O)N1)C(=O)O [[^203Pb]Pb-DOTAM-Pip-TATE] [metal not drawn]	97%	97%	97%	–	–	–	–
C[C@@H](O)[C@H](NC(=O)[C@@H]1CSSC[C@H](NC(=O)[C@@H](Cc2ccccc2)NC(=O)CN2CCN(CC(N)=O)CCN(CC(N)=O)CCN(CC(N)=O)CC2)C(=O)N[C@@H](Cc2ccc(O)cc2)C(=O)N[C@H](Cc2c[nH]c3ccccc23)C(=O)N[C@@H](CCCCN)C(=O)N[C@@H]([C@@H](C)O)C(=O)N1)C(=O)O [[^203Pb]Pb-DOTAM-TATE] [metal not drawn, reference compound]	99%	99%	99%	–	–	–	–
C[C@@H](O)[C@H](NC(=O)[C@@H]1CSSC[C@H](NC(=O)[C@@H](Cc2ccccc2)NC(=O)[C@H]2CC[C@H](CNC(=O)CN3CCN(CC(N)=O)CCN(CC(N)=O)CCN(CC(N)=O)CC3)CC2)C(=O)N[C@@H](Cc2ccc(O)cc2)C(=O)N[C@H](Cc2c[nH]c3ccccc23)C(=O)N[C@@H](CCCCN)C(=O)N[C@@H]([C@@H](C)O)C(=O)N1)C(=O)O [[^212Pb]Pb-DOTAM-Amcha-TATE, metal not drawn]	–	–	–	96%	96%	93%	–
C[C@@H](O)[C@H](NC(=O)[C@@H]1CSSC[C@H](NC(=O)[C@@H](Cc2ccccc2)NC(=O)[C@H]2CC[C@H](CNC(=O)CN3CCN(CC(N)=O)CCN(CC(N)=O)CCN(CC(N)=O)CC3)CC2)C(=O)N[C@@H](Cc2ccc(O)cc2)C(=O)N[C@H](Cc2c[nH]c3ccccc23)C(=O)N[C@@H](CCCCN)C(=O)N[C@@H]([C@@H](C)O)C(=O)N1)C(=O)O [[^212Pb]Pb-DOTAM-Amcha-TATE] [metal not drawn]	–	–	–	–	–	–	Absorbed dose per administered activity, Kidneys [1]: 121.73 ± 14.57 Gy/MBq; Absorbed dose per administered activity, Large Intestines [1]: 2.03 ± 0.26 Gy/MBq; Absorbed dose per administered activity, Liver [1]: 9.03 ± 2.24 Gy/MBq; Absorbed dose per administered activity, Lung [1]: 3.20 ± 0.40 Gy/MBq; Absorbed dose per administered activity, Pancreas [1]: 5.40 ± 0.14 Gy/MBq; Absorbed dose per administered activity, Spleen [1]: 0.73 ± 0.19 Gy/MBq; Absorbed dose per administered activity, Stomach wall [1]: 5.78 ± 0.77 Gy/MBq; Absorbed dose per administered activity, Tumor [1]: 35.49 ± 9.89 Gy/MBq
C[C@@H](O)[C@H](NC(=O)[C@@H]1CSSC[C@H](NC(=O)[C@@H](Cc2ccccc2)NC(=O)CN2CCC(NC(=O)CN3CCN(CC(N)=O)CCN(CC(N)=O)CCN(CC(N)=O)CC3)CC2)C(=O)N[C@@H](Cc2ccc(O)cc2)C(=O)N[C@H](Cc2c[nH]c3ccccc23)C(=O)N[C@@H](CCCCN)C(=O)N[C@@H]([C@@H](C)O)C(=O)N1)C(=O)O [[^212Pb]Pb-DOTAM-Pip-TATE, metal not drawn]	–	–	–	99%	99%	96%	–
C[C@@H](O)[C@H](NC(=O)[C@@H]1CSSC[C@H](NC(=O)[C@@H](Cc2ccccc2)NC(=O)CN2CCN(CC(N)=O)CCN(CC(N)=O)CCN(CC(N)=O)CC2)C(=O)N[C@@H](Cc2ccc(O)cc2)C(=O)N[C@H](Cc2c[nH]c3ccccc23)C(=O)N[C@@H](CCCCN)C(=O)N[C@@H]([C@@H](C)O)C(=O)N1)C(=O)O [[^212Pb]Pb-DOTAM-TATE, metal not drawn, reference compound]	–	–	–	99%	99%	97%	–
C[C@@H](O)[C@H](NC(=O)[C@@H]1CSSC[C@H](NC(=O)[C@@H](Cc2ccccc2)NC(=O)CN2CCN(CC(N)=O)CCN(CC(N)=O)CCN(CC(N)=O)CC2)C(=O)N[C@@H](Cc2ccc(O)cc2)C(=O)N[C@H](Cc2c[nH]c3ccccc23)C(=O)N[C@@H](CCCCN)C(=O)N[C@@H]([C@@H](C)O)C(=O)N1)C(=O)O [[^212Pb]Pb-DOTAM-TATE] [metal not drawn, reference compound]	–	–	–	–	–	–	Absorbed dose per administered activity, Kidneys [1]: 140.03 ± 17.95 Gy/MBq; Absorbed dose per administered activity, Large Intestines [1]: 1.64 ± 0.30 Gy/MBq; Absorbed dose per administered activity, Liver [1]: 6.93 ± 0.64 Gy/MBq; Absorbed dose per administered activity, Lung [1]: 2.06 ± 0.29 Gy/MBq; Absorbed dose per administered activity, Pancreas [1]: 3.65 ± 0.28 Gy/MBq; Absorbed dose per administered activity, Spleen [1]: 0.56 ± 0.14 Gy/MBq; Absorbed dose per administered activity, Stomach wall [1]: 4.42 ± 1.30 Gy/MBq; Absorbed dose per administered activity, Tumor [1]: 26.61 ± 19.27 Gy/MBq
